Experimental data published in paper PMC11574045, “A cofactor-induced repressive type of transcription factor condensation can be induced by synthetic peptides to suppress tumorigenesis” (The EMBO Journal, 2024).

B1: SNAPC4 (protein, UniProt Q5SXM2 1-1469, looked up)
snRNA-activating protein …: MDVDAEREKITQEIKELERILDPGSSGSHVEISESSLESDSEADSLPSEDLDPADPPISEEERWGEASNDEDDPKDKTLPEDPETCLQLNMVYQEVIQEKLAEANLLLAQNREQQEELMRDLAGSKGTKVKDGKSLPPSTYMGHFMKPYFKDKVTGVGPPANEDTREKAAQGIKAFEELLVTKWKNWEKALLRKSVVSDRLQRLLQPKLLKLEYLHQKQSKVSSELERQALEKQGREAEKEIQDINQLPEEALLGNRLDSHDWEKISNINFEGSRSAEEIRKFWQNSEHPSINKQEWSREEEERLQAIAAAHGHLEWQKIAEELGTSRSAFQCLQKFQQHNKALKRKEWTEEEDRMLTQLVQEMRVGSHIPYRRIVYYMEGRDSMQLIYRWTKSLDPGLKKGYWAPEEDAKLLQAVAKYGEQDWFKIREEVPGRSDAQCRDRYLRRLHFSLKKGRWNLKEEEQLIELIEKYGVGHWAKIASELPHRSGSQCLSKWKIMMGKKQGLRRRRRRARHSVRWSSTSSSGSSSGSSGGSSSSSSSSSEEDEPEQAQAGEGDRALLSPQYMVPDMDLWVPARQSTSQPWRGGAGAWLGGPAASLSPPKGSSASQGGSKEASTTAAAPGEETSPVQVPARAHGPVPRSAQASHSADTRPAGAEKQALEGGRRLLTVPVETVLRVLRANTAARSCTQKEQLRQPPLPTSSPGVSSGDSVARSHVQWLRHRATQSGQRRWRHALHRRLLNRRLLLAVTPWVGDVVVPCTQASQRPAVVQTQADGLREQLQQARLASTPVFTLFTQLFHIDTAGCLEVVRERKALPPRLPQAGARDPPVHLLQASSSAQSTPGHLFPNVPAQEASKSASHKGSRRLASSRVERTLPQASLLASTGPRPKPKTVSELLQEKRLQEARAREATRGPVVLPSQLLVSSSVILQPPLPHTPHGRPAPGPTVLNVPLSGPGAPAAAKPGTSGSWQEAGTSAKDKRLSTMQALPLAPVFSEAEGTAPAASQAPALGPGQISVSCPESGLGQSQAPAASRKQGLPEAPPFLPAAPSPTPLPVQPLSLTHIGGPHVATSVPLPVTWVLTAQGLLPVPVPAVVSLPRPAGTPGPAGLLATLLPPLTETRAAQGPRAPALSSSWQPPANMNREPEPSCRTDTPAPPTHALSQSPAEADGSVAFVPGEAQVAREIPEPRTSSHADPPEAEPPWSGRLPAFGGVIPATEPRGTPGSPSGTQEPRGPLGLEKLPLRQPGPEKGALDLEKPPLPQPGPEKGALDLGLLSQEGEAATQQWLGGQRGVRVPLLGSRLPYQPPALCSLRALSGLLLHKKALEHKATSLVVGGEAERPAGALQASLGLVRGQLQDNPAYLLLRARFLAAFTLPALLATLAPQGVRTTLSVPSRVGSESEDEDLLSELELADRDGQPGCTTATCPIQGAPDSGKCSASSCLDTSNDPDDLDVLRTRHARHTRKRRRLV
B2: SND1 (protein, UniProt Q7KZF4 2-910, looked up)
Staphylococcal nuclease …: ASSAQSGGSSGGPAVPTVQRGIIKMVLSGCAIIVRGQPRGGPPPERQINLSNIRAGNLARRAAATQPDAKDTPDEPWAFPAREFLRKKLIGKEVCFTIENKTPQGREYGMIYLGKDTNGENIAESLVAEGLATRREGMRANNPEQNRLSECEEQAKAAKKGMWSEGNGSHTIRDLKYTIENPRHFVDSHHQKPVNAIIEHVRDGSVVRALLLPDYYLVTVMLSGIKCPTFRREADGSETPEPFAAEAKFFTESRLLQRDVQIILESCHNQNILGTILHPNGNITELLLKEGFARCVDWSIAVYTRGAEKLRAAERFAKERRLRIWRDYVAPTANLDQKDKQFVAKVMQVLNADAIVVKLNSGDYKTIHLSSIRPPRLEGENTQDKNKKLRPLYDIPYMFEAREFLRKKLIGKKVNVTVDYIRPASPATETVPAFSERTCATVTIGGINIAEALVSKGLATVIRYRQDDDQRSSHYDELLAAEARAIKNGKGLHSKKEVPIHRVADISGDTQKAKQFLPFLQRAGRSEAVVEYVFSGSRLKLYLPKETCLITFLLAGIECPRGARNLPGLVQEGEPFSEEATLFTKELVLQREVEVEVESMDKAGNFIGWLHIDGANLSVLLVEHALSKVHFTAERSSYYKSLLSAEEAAKQKKEKVWAHYEEQPVEEVMPVLEEKERSASYKPVFVTEITDDLHFYVQDVETGTQLEKLMENMRNDIASHPPVEGSYAPRRGEFCIAKFVDGEWYRARVEKVESPAKIHVFYIDYGNREVLPSTRLGTLSPAFSTRVLPAQATEYAFAFIQVPQDDDARTDAVDSVVRDIQNTQCLLNVEHLSAGCPHVTLQFADSKGDVGLGLVKEGLVMVEVRKEKQFQKVITEYLNAQESAKSARLNLWRYGDFRADDADEFGYSR

Test system: HEK293FT cells transfected with TF library
Assay: Screening of TF condensates based on fluorescent puncta
Format: cell-based
Conditions: Figure 1B numerical data; TF library screen, one value per transcriptional factor
How it was run: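 Cells were seeded onto plasmid/PEI-loaded wells (plasmid 1.6 μg/ml final) and grown 60 h. Medium with or without glucose followed for 12 h. Fixed, permeabilized cells were stained against Flag or GAL4 tags, and condensate puncta were quantified from 50 random fields per well.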

| Molecule | Z score of condensed fraction |
| --- | --- |
| B1 | -0.9989 |
| B2 | 0.9266 |
